The data set can be described thus: soluble fraction after stress (log2 fold change); higher = more stays soluble; pooled small domains, quantitative proteomics. The settings on record: stress: 75 degC.
Turning to “HMPTMTDIPIKIIRSRRRTLAIEVREGGEVIVRAPLYSRKAEIDAFVKAHENWIITKYNLMITKQN”, the “soluble fraction (log2)” value was -3.51.
The same measure for “HMPTPRVPMSKQRQILQLLQDGHLSTREIAAALHISKTSVGDIAKAARLAGLDWEAASKLSDEELSARIYK”: -0.36; for “HMPTSPKANFLKELPQEFTRKQAVTIGDKLNIKERTVDNYLAKLEQAGYLVKPKAGYYQKIKS”: -0.0924; for “HMPTTTFENLPDAKKKTIIAALLKEFSQSPLSKAQVAPIVKESQIARGAFYKYFVDLTDAYTYLYRQ”: -0.0519.
Then “HMPTVLKQGSTGQEVKELQQALSKLGYRVTVTGEFDTATHYGVVRFQRKHRLTIDGIVGPQTLSKIRAHQK”, with -2.56; and “HMPVAPTYALTVKTDPPSANVRLLNSPTPYQPGVRLPSGNYDIEVTQSGYATRKESVRIADRDVALNIAL”, with 0.265; and “HMPVASNRDVNLDIGERVFVQEWAPNRTARVQYRGSPWEARLAPGAPAAAGEHRVSAVEGNWLVLEPA”, with -0.139.
The same measure for “HMPVEFVKISIKPGHPWENQFVRDIVSLPDLLMVLILRGEERIIPNGNTKILVGDKIVLSALSPG”: -2.2; for “HMPVEHVWHIAENGQTSGPYSKARMGRMAQEGQLTRDTHVWTPGQDGWMRAGDVTELAQLFT”: 0.0383.
Take “HMPVFSLTPRELEILEWMSTPNTYRQIAAQLSVSEETVRSHAKNILEKMRQPNRAQAVLAAVKMGLIKL”: the “soluble fraction (log2)” value is -1.57.
As to “HMPVISGQDLRVLIRDTGRERDQGISFLDDGTMVVVEDARRLIGQEVTATVTRVHQTQTGRIVFAHLSN”, the “soluble fraction (log2)” value is -1.25.
The same measure for “HMPVPSPAEQTATQLANIERHTGITVDGWTRAIAEAGAAKHGEIVAWLKQQGLTHGNANALAHAVRARQSG”: 0.581.
The same measure for “HMPVQSNRDALLDIGQTLQVQAWDAQGSARVSYRGSDWTAEFRGPGAAAPGLHRIIAVQGNRLIVEPA”: 0.342.
The same measure for “HMPVRIYEISKKLGLENKEVLATAKSLGIAAAKVPSSSLDKITAEYLEEEILKSHPEVAARLK”: 0.142; for “HMPVYEEEVPAALDGQRLDRVVAMVTGLSRSEVGALLAAGAVTVDGTTPAKGSVRLAAGSIVSVTVS”: -0.357; for “HMQAATGVVTASVLNIRQGPGTNYTKVGSLLKGAQVEIVGQNGAWSKIRLKSGITGWVNSSYLKTST”: -1.84.
As to “HMQAGPEDIIRAKLKTAMPEAQIISIRPTPAGLYQVNAKGYESVFVTADGRYLFQGDLLEIQGDRIVNL”, the “soluble fraction (log2)” value is -0.186.
Consider “HMQAKNGTVTGSVVNVRGGAGTQYAVKGKASRGTKVTILGQQSSWLNVRLDNGVTGWIHADYVQISE”, for which the “soluble fraction (log2)” value stood at 0.592.
Consider “HMQAPHLALSPREFQVLQGLLAGDALDIIAERLHLSAKTVSNHQTLIRQKLGVGNAVELLRYAQLHRL”, for which the “soluble fraction (log2)” value is -2.49.
“HMQAPIFMNETDGKWYFREKYLNDNHEIAYRVHPEGYDQMEDALRNSVNALNEFAAEMKELRKQV”: the “soluble fraction (log2)” value is -0.0803.
As to “HMQAPVVNHDLIKSFERQWREIKATAKGKVRSVNLSDARSILQSFLNTLQKGPGTDSLISSVQNELSLIA”, the “soluble fraction (log2)” value is -0.17.
Take “HMQARDQNVDEGKALLEKEFSRLALENLDRDKLANAVNYPTRDDMYAAIGAGDLRVGQVLHQAQQLF”: the “soluble fraction (log2)” value was found to be 0.226.
Then “HMQASTGNVNTETLNLRKEASTSADILKLLSQGDEVEIVSESNGWYKVKYKDTEGFVSKEYITVN”, with 1.02; and “HMQATETFSLIVPMSSAGNRLDVVLSELLPNFSRKKIQDAIKNGDATLNGKAPKIRDKVYGGENITITLIL”, with -2.55; and “HMQAVDPLELRAGDFVVHEQHGIGRYVEMVQRTIGGITREYLVIEYAPAKRGQPNDRVFVPTDTLEQVS”, with -0.654.
For “HMQAVKQIKVERGMTLEKIAQSEFGDSTRWGEIVEVNNLRAPYISDDPTETRDGVLKPGSNLLIPIP”, the “soluble fraction (log2)” value was -0.0397.
The same measure for “HMQDEAQLSMSNKYIFEGNSIVKDNFIEAEKKYRLGVSAKPNNAVGSYNLANAYYNSKLYDEAMLRLL”: 0.379; for “HMQDEREEIAVEDVVGMPLWQARKVIADQGFRVLDDGAGDIVIAQMPSGGGKLIEGGQVMLYTYTD”: 0.687.
The same measure for “HMQDFEEILKNAKIEDFKHTQTGEDLKVLKIEDKIEDFKGFNAYLVKNQIAYYSKFARGFVVKNIEKLQGV”: 0.202.
“HMQDFEQNLFDGKSIYDRMLSKFSLHNVDVKQLVAHFKRKDTEQFFADIGRGLITSAQMLGFLQT”: the “soluble fraction (log2)” value was -0.0166.
The same measure for “HMQDLVAVPALTGLTENDAINKAKANNLIAVVSEYKTENSVEPGKVLEQDPESSTEVKKGTIIKLVVS”: 0.756; for “HMQDQVTLIVQVNGKLRGQISISTDATKELIEQTALANENVQKFVDGQSIKKIIIVPGRLVNIV”: -0.939.
The same measure for “HMQDRDKNVPAGKELLDNEIARLNMSLKQVEQFALPRYNLKTLEDLYSGIGSGDIRLNHLINFLQSKLI”: 0.338; for “HMQDREIHIHAGREVLEKELSRLSLHLKNTNLQEYAARFNVKTAEDILAGIGAGDIRPAHVVNLIADKL”: -0.0928; for “HMQDSSGENNPQSKLTQQQVDLLMKDLKETNVEFDKLAEKYNVSIKTIRNVNTGIAWRKNDITYPIREP”: -0.407.
The same measure for “HMQDTQAEEGETLLDALRRIHPESSTGTLRRMLTQGRVQLDGDSVHAAKTVLSAGQRVEVVAR”: -0.143.
For “HMQDTTLTSQILRVPSSVNINDLANVLKSLAGKNTVVAPYKAANTIIITGYAPNVRRVLSLANELIPRLDV”, the “soluble fraction (log2)” value is -1.18.
As for “HMQEAGLITQRIREMREKENWTQEYMAEQLGMSENGYAKIERGESNLSLKRLQQIADIFEVESAELLK”, the “soluble fraction (log2)” value is 0.00448.
With “HMQEDKSKYLFQRGTAITVLRPAGIVRIGKERVDAVSNGSYIDRGVAVRVIEVEGTRVVVEPVPE”, the “soluble fraction (log2)” value turned out to be 0.0187.
Consider “HMQEEMIRGDIKLNTVMQTVHLAVGTETERNWQPVETTAKEFELLKLLMENPGVTLKKEYLFHMLI”, for which the “soluble fraction (log2)” value is -0.101.
Then “HMQEESISWKEFLELDIIGDKKKRLKVYDLFHLGYGNAKTLFKRLNMVGISREMIEKELENEGY”, with -1.39; and “HMQEKIREVANRIRELRESLEVSPEEMADHLKVTIGTYIEYERGEADIPASVLFGIAHRLNVDMAVLL”, with -1.36.
With “HMQEKLELIIPVSSIGKRADVAIQDLLSSYSRAKIQEWIKSGFILLESKKISPKDIFMGGERVFIDIQQDE”, the “soluble fraction (log2)” value was -1.86.
On to “HMQELVPGKVFEGTVTEMKNGQVTLGLSDGKTISARMEQGVSLAKGQPMLFEVKSNTGEQIAIRPVVL”, for which the “soluble fraction (log2)” value was 0.263.
The same measure for “HMQENKVLEGKVLEKKKKKVFVDLSPFGVGVIRGVNYLEAKNELKDIEEGDNIKVRVLEIDNENGFIELAL”: -0.121; for “HMQERQREGFVQQLRGKYSGQVVMRLFPELQGKALGEFMRKFEAQWEDHEAVLAAMEAHEIESRLKVFK”: -1.57.
For “HMQETALANFETNEGVQKVKQYVQENVPSLRGSNIVGVWTSYTPEGLTNYRTRFLTQDGQFVEVNLAYQ”, the “soluble fraction (log2)” value is -0.203.
Then “HMQETIDVAALRVGMFVHLDLGWLAHPFPLSSFRISSEDQISTIRALGLKRVRWSSQHSELG”, with -1.29; and “HMQETKDEGAQVLLNKINALVAAVQGQIITPEEAAIKLATDGDLDLDVDARVAAIEEFNKKLSEAQNN”, with 0.101; and “HMQEVILEKIQLTYLSADKLSKMAEQFSIPVKMYWVDENPMMLMVMGNESDIATFKKVLTQIDIPENKS”, with -0.268.

These data come from the domain aggregation screens of Martell et al. (2025).
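Also: 20 min heating vs room temperature control held 20 min.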
